# Target: c-Src SH2
# Assay: SH2 binding enrichment of the phosphorylated peptide, bacterial display (enrichment ratio); higher = better substrate or ligand; peptides without Tyr show the background
# 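Wherever SH2 binding enrichment of the phosphorylated peptide, bacterial display is given: peptide library displayed on the E. coli surface as eCPX fusions, selected cells deep-sequenced, score is each peptide's frequency after selection divided by its frequency in the input.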
# 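Wherever phosphorylation enrichment, bacterial display is given: 11-residue human phosphosite peptides and single-mutation variants displayed on the E. coli surface, counted by deep sequencing, each peptide's frequency after selection divided by its frequency in the unselected input library; frequency after pTyr selection over input frequency; kinase dosed for 20-30% of maximal phosphorylation in three min.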
row,Sequence,SH2 binding enrichment
1,SGIYQYIIAKF [FOXL2_Y83],1.07
2,CSDPSYVKQME [CDC5L_Y464_Y459C],0.515
3,IIGNGYFFHVF [MYBPC3_Y1135_R1138H_YF],0.484
4,MGGSVYFSFPD [HIKESHI_Y55_YF],0.662
5,NFRRGYHLQVL [CD200R1L_Y138_H135R],0.753
6,CTTIHHNFMCN [TP53_Y234_Y234H_YF],1.36
7,IFETDYFRKGG [INSR_Y1189_YF],0.472
8,WISNRYPDFSS [PRPH2_Y184_L185P],0.5
9,GSRGKCSSGFR [ATM_Y332_Y332C],0.915
10,RVQKRYILDNV [RCN1_Y115_F117L],0.454
11,SETSRYLSDLF [KCNJ3_Y67],0.543
12,YPIDHYLGKEM [G6PD_Y202_R198P],0.434
13,LEQDEYALHSH [HADHB_Y244_R247H],0.452
14,SSQAHYRLSAF [ADAMTS9_Y100],0.43
15,QSSALYEDCYL [ASS1_Y83_R86C],0.86
16,GRPLSYWLTGC [LYZL6_Y140_F139S],0.464
17,INSLKYAYNIS [EIF2B5_Y583],0.665

row,Sequence,SH2 binding enrichment
1,VHNLDYFKMTT [FGFR3_Y647_K650M_YF],0.56
2,DLDPNYVVSSR [CKM_Y125_L127V],0.488
3,YTGDIYSNSNL [LZTR1_Y141],0.479
4,DPADRYLIEQC [CDKL5_Y286_T288I],0.544
5,ALTRSYIREKV [CYP2C8_Y243],0.433
6,SREDIYKRNIE [PDE4DIP_Y45],0.403
7,AMCVRYDGVEV [ADAMTSL2_Y594],0.859
8,ARTNEYKIIRT [INA_Y87],0.494
9,FSLPAFMDRRD [COX4I1_Y38_Y38F],0.639
10,FCVDCYKNFVA [FHL1_Y213_YF],0.946
11,LFSLGYHQSLW [GANAB_Y396_R400L],0.61
12,LYIDSYEKDVA [PGM1_Y521],0.817
13,FTFDPYSEEDP [IL2RB_Y387_YF],0.651
14,SVTCTCSPALN [TP53_Y126_Y126C],0.472
15,MCDKEYYSVHN [MET_Y1234_Y1230C],1.16
16,SECCKYKTDNP [OSMR_Y689_I691T],0.48

# Target: SHP2-C SH2
# Assay: as above
row,Sequence,SH2 binding enrichment
1,SGIYQYIIAKF [FOXL2_Y83],1.05
2,CSDPSYVKQME [CDC5L_Y464_Y459C],0.666
3,IIGNGYFFHVF [MYBPC3_Y1135_R1138H_YF],0.74
4,MGGSVYFSFPD [HIKESHI_Y55_YF],0.908
5,NFRRGYHLQVL [CD200R1L_Y138_H135R],0.713
6,CTTIHHNFMCN [TP53_Y234_Y234H_YF],0.933
7,IFETDYFRKGG [INSR_Y1189_YF],0.672
8,WISNRYPDFSS [PRPH2_Y184_L185P],0.71
9,GSRGKCSSGFR [ATM_Y332_Y332C],0.713
10,RVQKRYILDNV [RCN1_Y115_F117L],0.553
11,SETSRYLSDLF [KCNJ3_Y67],0.989
12,YPIDHYLGKEM [G6PD_Y202_R198P],0.576
13,LEQDEYALHSH [HADHB_Y244_R247H],0.561
14,SSQAHYRLSAF [ADAMTS9_Y100],0.721
15,QSSALYEDCYL [ASS1_Y83_R86C],0.514
16,GRPLSYWLTGC [LYZL6_Y140_F139S],0.681
17,INSLKYAYNIS [EIF2B5_Y583],0.598

row,Sequence,SH2 binding enrichment
1,VHNLDYFKMTT [FGFR3_Y647_K650M_YF],0.556
2,DLDPNYVVSSR [CKM_Y125_L127V],0.787
3,YTGDIYSNSNL [LZTR1_Y141],0.545
4,DPADRYLIEQC [CDKL5_Y286_T288I],0.67
5,ALTRSYIREKV [CYP2C8_Y243],0.576
6,SREDIYKRNIE [PDE4DIP_Y45],0.753
7,AMCVRYDGVEV [ADAMTSL2_Y594],0.682
8,ARTNEYKIIRT [INA_Y87],1.11
9,FSLPAFMDRRD [COX4I1_Y38_Y38F],1.03
10,FCVDCYKNFVA [FHL1_Y213_YF],1.02
11,LFSLGYHQSLW [GANAB_Y396_R400L],0.59
12,LYIDSYEKDVA [PGM1_Y521],0.589
13,FTFDPYSEEDP [IL2RB_Y387_YF],0.823
14,SVTCTCSPALN [TP53_Y126_Y126C],0.508
15,MCDKEYYSVHN [MET_Y1234_Y1230C],0.908
16,SECCKYKTDNP [OSMR_Y689_I691T],0.901

# Target: Grb2 SH2 (UniProt P62993)
# Sequence (P62993 whole entry, looked up): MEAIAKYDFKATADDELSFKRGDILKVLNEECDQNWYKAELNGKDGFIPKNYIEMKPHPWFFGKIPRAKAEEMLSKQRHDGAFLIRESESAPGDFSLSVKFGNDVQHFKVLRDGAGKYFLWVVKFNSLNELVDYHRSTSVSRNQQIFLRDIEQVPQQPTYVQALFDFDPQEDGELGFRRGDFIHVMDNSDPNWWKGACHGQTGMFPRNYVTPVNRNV
# Assay: as above
row,Sequence,SH2 binding enrichment
1,SGIYQYIIAKF [FOXL2_Y83],1.24
2,CSDPSYVKQME [CDC5L_Y464_Y459C],0.882
3,IIGNGYFFHVF [MYBPC3_Y1135_R1138H_YF],0.848
4,MGGSVYFSFPD [HIKESHI_Y55_YF],0.892
5,NFRRGYHLQVL [CD200R1L_Y138_H135R],0.847
6,CTTIHHNFMCN [TP53_Y234_Y234H_YF],1.36
7,IFETDYFRKGG [INSR_Y1189_YF],0.918
8,WISNRYPDFSS [PRPH2_Y184_L185P],0.964
9,GSRGKCSSGFR [ATM_Y332_Y332C],1.06
10,RVQKRYILDNV [RCN1_Y115_F117L],0.804
11,SETSRYLSDLF [KCNJ3_Y67],0.942
12,YPIDHYLGKEM [G6PD_Y202_R198P],0.708
13,LEQDEYALHSH [HADHB_Y244_R247H],0.744
14,SSQAHYRLSAF [ADAMTS9_Y100],0.816
15,QSSALYEDCYL [ASS1_Y83_R86C],0.863
16,GRPLSYWLTGC [LYZL6_Y140_F139S],0.763
17,INSLKYAYNIS [EIF2B5_Y583],0.778

row,Sequence,SH2 binding enrichment
1,VHNLDYFKMTT [FGFR3_Y647_K650M_YF],0.995
2,DLDPNYVVSSR [CKM_Y125_L127V],0.8
3,YTGDIYSNSNL [LZTR1_Y141],0.648
4,DPADRYLIEQC [CDKL5_Y286_T288I],0.88
5,ALTRSYIREKV [CYP2C8_Y243],0.655
6,SREDIYKRNIE [PDE4DIP_Y45],0.767
7,AMCVRYDGVEV [ADAMTSL2_Y594],0.805
8,ARTNEYKIIRT [INA_Y87],0.877
9,FSLPAFMDRRD [COX4I1_Y38_Y38F],1.02
10,FCVDCYKNFVA [FHL1_Y213_YF],1.2
11,LFSLGYHQSLW [GANAB_Y396_R400L],0.98
12,LYIDSYEKDVA [PGM1_Y521],0.86
13,FTFDPYSEEDP [IL2RB_Y387_YF],1.09
14,SVTCTCSPALN [TP53_Y126_Y126C],0.856
15,MCDKEYYSVHN [MET_Y1234_Y1230C],1.13
16,SECCKYKTDNP [OSMR_Y689_I691T],0.852

# Target: Fes (UniProt P07332)
# Sequence (P07332 whole entry, looked up): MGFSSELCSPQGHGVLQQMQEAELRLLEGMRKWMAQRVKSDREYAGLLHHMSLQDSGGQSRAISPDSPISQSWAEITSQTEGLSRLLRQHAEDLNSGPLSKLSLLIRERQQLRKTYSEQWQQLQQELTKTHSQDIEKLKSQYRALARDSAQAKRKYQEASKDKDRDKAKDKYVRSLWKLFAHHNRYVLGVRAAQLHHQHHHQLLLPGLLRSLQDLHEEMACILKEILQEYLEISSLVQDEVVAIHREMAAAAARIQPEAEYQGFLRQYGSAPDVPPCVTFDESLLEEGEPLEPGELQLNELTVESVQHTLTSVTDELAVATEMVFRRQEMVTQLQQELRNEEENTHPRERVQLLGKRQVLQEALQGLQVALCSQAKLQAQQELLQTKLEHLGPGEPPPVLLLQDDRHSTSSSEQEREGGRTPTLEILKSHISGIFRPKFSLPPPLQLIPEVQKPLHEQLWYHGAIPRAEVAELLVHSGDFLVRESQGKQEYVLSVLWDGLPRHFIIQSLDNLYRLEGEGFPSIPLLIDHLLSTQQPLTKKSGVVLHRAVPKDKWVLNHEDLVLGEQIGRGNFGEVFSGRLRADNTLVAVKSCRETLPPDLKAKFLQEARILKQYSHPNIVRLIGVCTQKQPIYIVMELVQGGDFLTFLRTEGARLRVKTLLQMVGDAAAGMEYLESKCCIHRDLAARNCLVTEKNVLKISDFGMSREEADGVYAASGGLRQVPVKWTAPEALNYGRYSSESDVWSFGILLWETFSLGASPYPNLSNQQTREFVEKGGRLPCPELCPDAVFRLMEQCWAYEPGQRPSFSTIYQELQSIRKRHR
# Assay: phosphorylation enrichment, bacterial display (enrichment ratio); higher = better substrate or ligand; peptides without Tyr show the background
row,Sequence,phosphorylation enrichment
1,SGIYQYIIAKF [FOXL2_Y83],1.72
2,CSDPSYVKQME [CDC5L_Y464_Y459C],1.38
3,IIGNGYFFHVF [MYBPC3_Y1135_R1138H_YF],1.09
4,MGGSVYFSFPD [HIKESHI_Y55_YF],1.32
5,NFRRGYHLQVL [CD200R1L_Y138_H135R],0.699
6,CTTIHHNFMCN [TP53_Y234_Y234H_YF],0.844
7,IFETDYFRKGG [INSR_Y1189_YF],0.938
8,WISNRYPDFSS [PRPH2_Y184_L185P],0.953
9,GSRGKCSSGFR [ATM_Y332_Y332C],0.558
10,RVQKRYILDNV [RCN1_Y115_F117L],0.463
11,SETSRYLSDLF [KCNJ3_Y67],1.21
12,YPIDHYLGKEM [G6PD_Y202_R198P],0.891
13,LEQDEYALHSH [HADHB_Y244_R247H],1.24
14,SSQAHYRLSAF [ADAMTS9_Y100],0.584
15,QSSALYEDCYL [ASS1_Y83_R86C],2.95
16,GRPLSYWLTGC [LYZL6_Y140_F139S],1.33
17,INSLKYAYNIS [EIF2B5_Y583],0.762

row,Sequence,phosphorylation enrichment
1,VHNLDYFKMTT [FGFR3_Y647_K650M_YF],0.653
2,DLDPNYVVSSR [CKM_Y125_L127V],0.943
3,YTGDIYSNSNL [LZTR1_Y141],0.707
4,DPADRYLIEQC [CDKL5_Y286_T288I],1.32
5,ALTRSYIREKV [CYP2C8_Y243],0.596
6,SREDIYKRNIE [PDE4DIP_Y45],0.81
7,AMCVRYDGVEV [ADAMTSL2_Y594],1.26
8,ARTNEYKIIRT [INA_Y87],0.469
9,FSLPAFMDRRD [COX4I1_Y38_Y38F],0.81
10,FCVDCYKNFVA [FHL1_Y213_YF],0.957
11,LFSLGYHQSLW [GANAB_Y396_R400L],0.986
12,LYIDSYEKDVA [PGM1_Y521],1.5
13,FTFDPYSEEDP [IL2RB_Y387_YF],1.23
14,SVTCTCSPALN [TP53_Y126_Y126C],1.48
15,MCDKEYYSVHN [MET_Y1234_Y1230C],0.862
16,SECCKYKTDNP [OSMR_Y689_I691T],0.752

# Reference: the supplement of paper PMC10065799, “High-throughput profiling of sequence recognition by tyrosine kinases and SH2 domains using bacterial peptide display” (eLife, 2023)
